According to patent US11160886B2, “Method for labeling of sensitive and thermosensitive targeting biomolecules with technetium based compounds” (BRACCO IMAGING SPA, priority 2016, dated 2021):

How the values were obtained:
[1] = system: αvβ3 integrins; type: in vivo, NOD/SCID mice; conditions: 120 min post injection
Method: (§1) Before injection, ^99mTc complexes were purified using a reversed-phase C18 Sep-Pack cartridge to remove the excess of unlabeled ligands. After purification, the activity recovered was further diluted with PBS to obtain a final solution that is <0.5% in EtOH content. The RCP and the stability of the purified complexes were evaluated prior to in vivo administration and for the succeeding 18 h.
Distribution in Tumor Bearing Mice.
Tumor uptake studies were performed on complex 9 in NOD/SCID mice to determine the effective capability of the complex to detect in vivo endogenously expressed αvβ3 integrins. For induction of tumor xenografts, M21 (αvβ3 positive) and M21L (αvβ3 negative) cells were subcutaneously injected at a concentration of 5×10^6 cells/mouse and allowed to grow until tumor of 3 mm is palpable. The solution containing the purified radiolabeled peptide (15 μCi/200 μL) was injected intravenously into the tail vein. The animals (n=5) were sacrificed by cervical dislocation at 2 h post injection. Tumors and other tissues (blood, heart, lung, liver, kidneys, stomach, intestine, muscle) were removed, weighed, and the activity was counted in a Nal well counter. The results were expressed as the percentage of injected activity per gram of tissue (% IA/g) and tumor to organ ratios were calculated.

[2] = Biodistribution in healthy rats; type: in vivo, Sprague-Dawley rats; conditions: for Biodistribution: Blood / Biodistribution: Heart / Biodistribution: Intestine / Biodistribution: Kidneys / Biodistribution: Liver / Biodistribution: Lungs / Biodistribution: Muscle / Biodistribution: Spleen / Biodistribution: Stomach / Biodistribution: Urine: healthy rats
Method: as §1
Biodistribution in healthy rats. Biodistribution in healthy rats was performed on complex 1, complex 2 and complex 9 in order to evaluate their pharmacokinetic profile and elimination pathways as well as their resistance to in vivo metabolism. Female Sprague-Dawley rats weighing 180-200 g were anesthetized with an intramuscular injection of a mixture of Zoletil (40 mg/kg) and xylazine (2 mg/kg). A jugular vein was surgically exposed and 100 μl (300-370 kBq) of the solution containing the selected [^99mTc(N)(PNP3OH)]-compound was injected. The rats (n=3) were scarified by cervical dislocation at different times after injection. The blood was withdrawn from the heart with a syringe immediately after death and quantified. Organs were excised, rinsed in saline, weighed, and the activity was counted in a Nal well counter.

[3] = Stability in RPMI1640 cell culture medium; type: physicochemical
Method: Before the cell experiments, the stability of the purified complex 9 in RPMI1640 medium was evaluated. The radiolabeled peptide was found stable. Data were compared with those of the ^99mTc-HYNIC-RGDfK labeled compound produced according to literature (Decristoforo C, Santos I, Pietzsch H J, Kuenstler J U, Duatti A, Smith C J, Rey A, Alberto R, Von Guggenberg E, Haubner R. Comparison of in vitro and in vivo properties of [99mTc]cRGD peptides labeled using different novel Tc-cores.Q J Nucl Med Mol Imaging. (2007), 51, 33-41).
Thus, to a glass test tube containing 990 μL of cell culture media was added 10 μL of a solution containing 10 μCi of complex 9. The mixture was vortexed and incubated at 37° C. for 2 h. At 30 min, 1 and 2 h, 100 μl of the reaction mixture were withdrawn and analyzed by HPLC chromatography. The radiochemical purity (RCP) of the complexes was found >90%.

[4] = Sera and homogenates stability; type: in vitro ADME, human and rat; conditions: 37° C.
Method: Sera and Homogenates Stability.
The in vitro stability of complex 1, complex 2, complex 9 and complex 11 was evaluated by monitoring the RCP at different time points using the following procedures. In a propylene test tube 50 μl of purified [^99mTc(N)(PNP3OH)]-compound were added to: a) 450 μl of human serum, b) 450 μl of rat serum, c) 450 μl of homogenate of rat liver and d) 450 μl of homogenate of rat kidneys. The resulting mixture was incubated at 37° C. for 4 h.
The sample was loaded onto a cartridge, preconditioned with MeOH (1 ml) and equilibrated with water (1 ml), and rinsed with MeOH 5% (3 ml). The activity was eluted with a mixture of EtOH/saline 60% (1 ml). Each fraction was collected and the activity measured using a counter (Cobra II, Packard) to determinate the elution profile. 80% of the loaded activity was collected in the elution fraction. An aliquot of this solution (100 μl) was analyzed by HPLC to assess the degradation of the ^99mTc(N)-complexes (FIG. 11).

[5] = Isomeric conversion over 24 h at 37° C.; type: physicochemical
Method: Before the experiments for both complex 11 and complex 9, the two isomers were isolated by HPLC and their isomeric conversion was assessed over 24 h at 37° C.
In addition, a faster b vs a change was noticed. Therefore, for the radiolabeled peptide the mixture of the two isomeric forms in ratio 70/30 was directly utilized for receptor affinity studies.

Substance: [^99mTc(N)(PNP3OH)(Cys-cRGDfK)]^+ [Complex 9]
- Tumor uptake: M21 ([1]; M21 (αvβ3 positive) tumor, mice): 4.38±0.69 % IA/g
- Tumor uptake: M21L ([1]; M21L (αvβ3 negative) tumor, mice): 1.05 ± 0.62 % IA/g
- Biodistribution: Blood ([1]; tumor bearing mice): 0.03 ± 0.01 % IA/g
- Biodistribution: Heart ([1]; tumor bearing mice): 0.44 ± 0.09 % IA/g
- Biodistribution: Intestine ([1]; tumor bearing mice): 5.05 ± 1.24 % IA/g
- Biodistribution: Kidney ([1]; tumor bearing mice): 3.19 ± 0.18 % IA/g
- Biodistribution: Liver ([1]; tumor bearing mice): 3.87 ± 0.81 % IA/g
- Biodistribution: Lungs ([1]; tumor bearing mice): 1.22 ± 0.25 % IA/g
- Biodistribution: Muscle ([1]; tumor bearing mice): 0.20 ± 0.07 % IA/g
- Biodistribution: Spleen ([1]; tumor bearing mice): 1.51 ± 0.22 % IA/g
- Biodistribution: Stomach ([1]; tumor bearing mice): 0.96 ± 0.20 % IA/g
- M21/blood ratio ([1]; tumor bearing mice): 146
- M21/liver ratio ([1]; tumor bearing mice): 1.13
- M21/lung ratio ([1]; tumor bearing mice): 3.59
- M21/muscle ratio ([1]; tumor bearing mice): 21.9
- Pharmacokinetic profile: blood clearance ([2]; healthy animals, within the first 60 min p.i.): rapid blood clearance
- Biodistribution: Blood ([2]; 30 min): 0.46 ± 0.17 % IA/g
- Biodistribution: Heart ([2]; 30 min): 0.25 ± 0.06 % IA/g
- Biodistribution: Intestine ([2]; 30 min): 1.29 ± 0.13 % IA/g
- Biodistribution: Kidneys ([2]; 30 min): 4.50 ± 1.59 % IA/g
- Biodistribution: Liver ([2]; 30 min): 0.90 ± 0.16 % IA/g
- Biodistribution: Lungs ([2]; 30 min): 0.62 ± 0.15 % IA/g
- Biodistribution: Muscle ([2]; 30 min): 0.17 ± 0.01 % IA/g
- Biodistribution: Spleen ([2]; 30 min): 0.41 ± 0.10 % IA/g
- Biodistribution: Stomach ([2]; 30 min): 0.62 ± 0.14 % IA/g
- Biodistribution: Urine ([2]; 30 min): 28.98 ± 7.22 % IA/g
- Biodistribution: Blood ([2]; 60 min): 0.25 ± 0.03 % IA/g
- Biodistribution: Heart ([2]; 60 min): 0.15 ± 0.00 % IA/g
- Biodistribution: Intestine ([2]; 60 min): 1.95 ± 0.97 % IA/g
- Biodistribution: Kidneys ([2]; 60 min): 4.20 ± 0.35 % IA/g
- Biodistribution: Liver ([2]; 60 min): 0.80 ± 0.06 % IA/g
- Biodistribution: Lungs ([2]; 60 min): 0.49 ± 0.01 % IA/g
- Biodistribution: Muscle ([2]; 60 min): 0.13 ± 0.01 % IA/g
- Biodistribution: Spleen ([2]; 60 min): 0.39 ± 0.04 % IA/g
- Biodistribution: Stomach ([2]; 60 min): 0.64 ± 0.09 % IA/g
- Biodistribution: Urine ([2]; 60 min): 28.16 ± 2.49 % IA/g
- Biodistribution: Blood ([2]; 120 min): 0.16 ± 0.11 % IA/g
- Biodistribution: Heart ([2]; 120 min): 0.13 ± 0.05 % IA/g
- Biodistribution: Intestine ([2]; 120 min): 3.76 ± 0.17 % IA/g
- Biodistribution: Kidneys ([2]; 120 min): 3.13 ± 1.69 % IA/g
- Biodistribution: Liver ([2]; 120 min): 0.75 ± 0.19 % IA/g
- Biodistribution: Lungs ([2]; 120 min): 0.37 ± 0.15 % IA/g
- Biodistribution: Muscle ([2]; 120 min): 0.12 ± 0.05 % IA/g
- Biodistribution: Spleen ([2]; 120 min): 0.34 ± 0.05 % IA/g
- Biodistribution: Stomach ([2]; 120 min): 0.62 ± 0.09 % IA/g
- Biodistribution: Urine ([2]; 120 min): 34.58 ± 10.09 % IA/g
- Biodistribution: Blood ([2]; 240 min): 0.12 ± 0.01 % IA/g
- Biodistribution: Heart ([2]; 240 min): 0.22 ± 0.13 % IA/g
- Biodistribution: Intestine ([2]; 240 min): 3.94 ± 0.91 % IA/g
- Biodistribution: Kidneys ([2]; 240 min): 7.24 ± 0.55 % IA/g
- Biodistribution: Liver ([2]; 240 min): 0.88 ± 0.04 % IA/g
- Biodistribution: Lungs ([2]; 240 min): 0.42 ± 0.06 % IA/g
- Biodistribution: Muscle ([2]; 240 min): 0.11 ± 0.00 % IA/g
- Biodistribution: Spleen ([2]; 240 min): 0.47 ± 0.04 % IA/g
- Biodistribution: Stomach ([2]; 240 min): 0.61 ± 0.11 % IA/g
- Biodistribution: Urine ([2]; 240 min): 24.91 ± 1.00 % IA/g
- Stability in RPMI1640 medium [3]: found stable
- Radiochemical purity (RCP) in cell culture media ([3]; 37° C., 30 min, 1 and 2 h): > 90%
- Sera stability ([4]; human and rat sera, 3 h): high sera stability
- In vitro stability (HPLC peaks versus control) ([4]; human serum, rat serum, rat kidneys homogenate, rat liver homogenate, 2 h): remarkable in vitro stability
- Isomeric conversion a vs b [5]: reversible a vs b and b vs a conversion
